Assay: yeast display, Sf9 membrane polyspecificity reagent, FACS + sequencing; frameworks hold sequencing errors
Outline: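 Using colony PCR, genes from sorted yeast display clones were amplified, then sequenced on MiSeq at 2 × 250 and filtered by CDR length. The clones had been stained with 10% biotinylated, detergent-solubilized Sf9 membrane reagent for 1 hour at 4 °C and sorted by FACS into low and high (top ~1%) gates on anti-HA and streptavidin fluorescence. Polyreactivity labels come from the gate of origin.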

Sequence | polyreactivity (PSR sort gate)
QVQLVESGGGLVQAGGSLRLSCAASGRIFGYYAMGWSRQAPGKEREFVAAINWRGSSTTYADSVKGRFTISRDNAKNTVYLQMNSLKPEDTAVYYCKRVFGGGQWVYGYWGQGTQVTVSS | high polyreactivity
QVQLVESGGGLVQAGGSLRLSCAASGRIFGYYAMGWYRQAPGKERELVAAIRWSSGRTYYADSVKGRFTISRDNAKNTVYLQMNSLKPEDTAVYYCAKDGGLRKFDYWGQGTQVTVSS | high polyreactivity
QVQLVESGGGLVQAGGSLRLSCAASGRIFGYYAMGWYRQAPGKERELVAAISRSGSSTYYADSVKGRFTISRDNAKNTVYLQMNSLKPEDTAVYYCNSEKYYRAYLLPFNYWGQGTQVTVSS | high polyreactivity
QVQLVESGGGLVQAGGSLRLSCAASGRIFGYYAMGWYRQAPGKERELVAAISYSGGRTYYADSVKGRFTISRDNAKNTVYLQMNSLKPEDTAVYYCNARSRSYKWYTRTGYGYDYWGQGTQVTVSS | high polyreactivity
QVQLVESGGGLVQAGGSLRLSCAASGRIFGYYAMGWYRQAPGKERELVAAISYSGGSTYYADSVKGRFTISRDNAKYTVFLQMNSLKPEDTAVYYCNKVYSIRGYWGQGTQVTVSS | high polyreactivity
QVQLVESGGGLVQAGGSLRLSCAASGRIFGYYAMGWYRQAPGKERELVAAITRGGSTNYADSVKGRFTISRDNAKNTVYLQMNSLKPEDTAVYYCNARRYRPGSASYDYWGQGTQVTVSS | high polyreactivity
QVQLVESGGGLVQAGGSLRLSCAASGRIFGYYAMGWYRQAPGKERELVAAITSGGRTYYADSVKGRFTISRDNAKNTVFLQMNSLKPEDTAVNYCAAVRALRKVRDYYYWGQGTQVTVSS | high polyreactivity
QVQLVESGGGLVQAGGSLRLSCAASGRIFGYYAMGWYRQAPGKERELVATITFGGGSTYYADSVKGRFTISRDNAKNTVYLQMNSLIPEDSAVYYCAADSGYLGIYGDEYSWGQGTQVTVSS | low polyreactivity
QVQLVESGGGLVQAGGSLRLSCAASGRIFGYYAMVCYRQAPGKERELVAAISSGGGSTYYADSVKGRFTISRDNAKNTVYLQMNSLKPEDTAVYYCIVAYRWSTRYDYWGQGTQVTVSS | high polyreactivity
QVQLVESGGGLVQAGGSLRLSCAASGRIFGYYVMGWYRQAPGKERELVAAIRSSADSTYYADSVKGRFTISRDNAKNTVYFQMNSLKPEDTAVYYCAAQSPAYYTKSYWGQGTQVTVSS | low polyreactivity
QVQLVESGGGLVQAGGSLRLSCAASGRIFHGNAMGWYRQAPGKERELVARISSSGGGTYYADSVKGRFTISRDNAKNTVYLQMNSLKPEDTAVYYCAARRPDHTEVSNLRYDSWGQGTQVTVSS | low polyreactivity
QVQLVESGGGLVQAGGSLRLSCAASGRIFHGYAMGWYRQAPGKDRELVAVIRSGVNTNYADSVKGRFTISRDNAKNTVYLQMNSLKPADTAVYYCAVDYTPEDWGDDYWGQGTHVTVSS | low polyreactivity
QVQLVESGGGLVQAGGSLRLSCAASGRIFHHNAMVSYRQAPGKEMELVATITWSGGRTYYADSVKGRFTISRDNAKNTVYLQMNSLKPEDTAVYYCAASSYSYYGYRSYQSTYYYWGQGTQVTVSS | low polyreactivity
QVQLVESGGGLVQAGGSLRLSCAASGRIFHHNVMGWYRPAPGKERELVAAISQSGGSTYYADSVKGRFTISRDNAKYTVYVQMNSLKPEDTAVYYCNAGAAGRRYNYWGQGTQVTVSS | low polyreactivity
QVQLVESGGGLVQAGGSLRLSCAASGRIFHIYAMGWYRQAPGKERELVAAIRSSGGSTYYADSVKGRFTISRDNAKNTVYLQMNSLKPEDTAVYYCAVDYGNPVYWDEMYYWGQGTQVTVSS | low polyreactivity
QVQLVESGGGLVQAGGSLRLSCAASGRIFHRYAMGWYRQAPGKEREFVAAISSRGGSTYYADSLKGRFTISRDTAKNTVDFQINSLKPEETAVYYCAAQIGYRSGEFYYWGQGTQVTVSS | high polyreactivity
QVQLVESGGGLVQAGGSLRLSCAASGRIFHTYAMGWYIQAPGKERELVAAISRSGGSTYYADSVKGRFTISRDNAKNTVYLQMNSLKPEDTAVYYCAADIRGPYGNRYKFYYWGQGTQVTVSS | high polyreactivity
QVQLVESGGGLVQAGGSLRLSCAASGRIFHYAMGWYRQAPGKERELVAGISKRGGSTYYADSVKGRFTISRDNAKNTVYLQMNSLKPEDTAVYYCAAGRAYDGTKHDYWGQGSQVTVSS | high polyreactivity
QVQLVESGGGLVQAGGSLRLSCAASGRIFHYNAMGWYRQAPGKERELVAAISTGGSTNYADSVKGRFTISRDNAKNTFYLQMYSLKPEDTAVYYCAADHPVTYPTSKFDFWGQGTQVTVSS | low polyreactivity
QVQLVESGGGLVQAGGSLRLSCAASGRIFHYYAMGWYRQAPGKERELVAAISWSGGSTYYADSVKGRFTISRDNAKNTVYLQMNSLKPEETAVYYCAARYVKTKGSFVVGYGYWGQGTQVTLSS | high polyreactivity
QVQLVESGGGLVQAGGSLRLSCAASGRIFIANTMGWYRQAPGKERELVAAITQRGDSTYYADSVKGRFTISRDNAKNTVYLQMNSLKPVDTAVYYCAARSFRKYYIRYDYWGQGTQVTVSS | high polyreactivity
QVQLVESGGGLVQAGGSLRLSCAASGRIFIAYTMGWYRPAPGKERELVAAITWNGGSTYYADSVKGRFTISRDNAKNTVYLQMNSLKPEDTAVYYWVVVSRPGPKPAREMDYWGQGTQVTVSS | low polyreactivity

Sequence | polyreactivity (PSR sort gate)
QVQLVESGGGLVQAGGSLRLSCAASGRIFIDNAMGWYRQAPGKERELVAAISWTGGRTYYADSVKGRFTISRDNAKKTVYLQMNSLKPEDPAVYYCAAKQYTRFGYYYWGQGSQVTVSS | high polyreactivity
QVQLVESGGGLVQAGGSLRLSCAASGRIFIEYAMGWYRQAPGKERELVATINSSGGRTYYADSVKGRFTISRDNAKNTVYLQMNSLKPEDTAVYYCAARGSYRGPYNVEYDSWGQGTQVTVSS | low polyreactivity
QVQLVESGGGLVQAGGSLRLSCAASGRIFIQYGMVWYRQAPGKERELVAAIRSGDSTNYADSVKGRFTISRDNAKNTVYLQMNSLKPEDTSVYYCARDRPGDYAGYDYWGQGTQVTVSS | low polyreactivity
QVQLVESGGGLVQAGGSLRLSCAASGRIFIRDARGWYRPAPGKERELVAALTRGGSTYYADSVKGRFTISRDTAKNTVYLQMNSLKPEDTAVYYCAARVGYPYYYWGQGTQVTVSS | high polyreactivity
QVQLVESGGGLVQAGGSLRLSCAASGRIFIRNDMGWYRQAPGKERELVAVITRSGGRTYYADSVKGRFTISRDNAMNTVYLQMNSLKPEDTAVYYCAKRQAFKQAPYEYWGQGSQVTVSS | low polyreactivity
QVQLVESGGGLVQAGGSLRLSCAASGRIFISNAMGWYRQAPGKERELVAAITWIGDRTYYADSVKGRFTISRDNAKITVYLQMNSLKPEDTAVYYCNRVTSRVSGRYSYDYWGQGTQVTVSS | high polyreactivity
QVQLVESGGGLVQAGGSLRLSCAASGRIFISYTMGWDRQAPGKERELVAGIDSSGTSTYYADSVKGRFTISRDNAKNTVYLQMNSLKPEDTAVYYCNVDGNWKDTSTELDYWGQGTQVTVSS | low polyreactivity
QVQLVESGGGLVQAGGSLRLSCAASGRIFITNAMGGYRQAPGKERELVASITVSGDSTYYADSVKGRFTISRDNAKNTVYLQMNSLKPEDTAVYYCAADYYALDKVLGYNYWGQGTQVTVSS | low polyreactivity
QVQLVESGGGLVQAGGSLRLSCAASGRIFIYNAMGWYRQAPGKERELVAAISSGGDTYYADSVKGRFTISRDNAKNTVYLQMNSLKPEDSAVYYCAATFVVKGTRFGYWGQGTQVTVSS | high polyreactivity
QVQLVESGGGLVQAGGSLRLSCAASGRIFIYYARGWYRQAPGKERELVAAISGGGGRTYYADSVKGRFTISRDNAKNTVYLQMNSLKPEDTAVYYCAAGVYTGQDEYDYWGQGTQVTVSS | low polyreactivity
QVQLVESGGGLVQAGGSLRLSCAASGRIFKDNAMGWYRQAPGKERELVATIDSGGDTNYADSVKGRFTISRDNAKNTVYLQMNSLKPEDTAVYYCNTEGFLSAVYAFGYWGQGTQVTVSS | low polyreactivity
QVQLVESGGGLVQAGGSLRLSCAASGRIFKFYAMGWYRQAPGKERELVAGITTSGGSTYYADSVKGRFTISRDNAKNTVYLQMNSLKPEDTAVYYCAASRHFARHRGYYFRYDYWGQGTQVTVSS | high polyreactivity
QVQLVESGGGLVQAGGSLRLSCAASGRIFKGNAMGWYRQAPGKERELVAAISRNGGSTYYADSVKGRFTISRDNAKNTVSLLMNSLKPEDTAVYYCAAYGYRYTEGGWWRMDYWGQGTEVTVSS | high polyreactivity
QVQLVESGGGLVQAGGSLRLSCAASGRIFKGYAMGWYRQAPGKERELVAAITWRGGTTYYADSVKGPFTISRDNAKNTVYLQMNSLKPEDTAVYYCAAANWQRYYYWGQGTQVTVSS | high polyreactivity
QVQLVESGGGLVQAGGSLRLSCAASGRIFKINAMGWYRQAPGKERELVAAITRSGGTTYYADSVMGRFTISRDHAKNTVYLQMNSLKPEDTAVYYCAARVVQYPYYYWGQGTQVTVSS | high polyreactivity
QVQLVESGGGLVQAGGSLRLSCAASGRIFKLNAMGWYRQAPGNERELVAAITFAGGSTYYADSVKGRFTISRDIAKNTVYLQMNSLKPEDTAVYYCNADFSNVEMDYWGQGTQVNVSS | low polyreactivity
QVQLVESGGGLVQAGGSLRLSCAASGRIFKLYAMGLYRQAPGKERELVAASSKSGGSTYYADSVKGRFKISRDNAKNTVYLQMNSLKPEDSAVYYCNADPVRSGLDYWGQGTQVTVSS | high polyreactivity
QVQLVESGGGLVQAGGSLRLSCAASGRIFKNYAKGWYRQAPGKERELVAAISWSGGRTYYSDSVKGRFTISRDNAKNTVYLQMNSLKPEYTAVYYCAARFRRTRVTYYYWGQGTQVTVSS | high polyreactivity
QVQLVESGGGLVQAGGSLRLSCAASGRIFKNYAMGWYRQAPGKERELVAAITWSGGRTYYADSVKGRFTISRDNAKNTVYLQMNSLKPEDTAVYYCATAARRGPTSIEPFGYGSWGQGTQVTVSS | high polyreactivity
QVQLVESGGGLVQAGGSLRLSCAASGRIFKRNAKGWYRQAPGKEWELVATISGSGGSTYYADSVKGRFTISRDNAKNTVYLQMNSLKPEDTAVYYCAAVPGYPRDSLYNYWGQGSQVTVSS | high polyreactivity
QVQLVESGGGLVQAGGSLRLSCAASGRIFKRNAMGWYRQAPGKERELVAAISWRGGSTYYADSVKGRFTISRDNAKNTVYLQMNSLKPEDTAVYYCNVGYGGSSDGGYDYWGQGTQVTVSS | high polyreactivity
